Data as given in publication PMC4507496 (Biochemical and biophysical research communications, 2015).

Biological target: T1, ATG7 W243A (human, UniProt O95352 1-703, W243A)
T1 sequence (looked up): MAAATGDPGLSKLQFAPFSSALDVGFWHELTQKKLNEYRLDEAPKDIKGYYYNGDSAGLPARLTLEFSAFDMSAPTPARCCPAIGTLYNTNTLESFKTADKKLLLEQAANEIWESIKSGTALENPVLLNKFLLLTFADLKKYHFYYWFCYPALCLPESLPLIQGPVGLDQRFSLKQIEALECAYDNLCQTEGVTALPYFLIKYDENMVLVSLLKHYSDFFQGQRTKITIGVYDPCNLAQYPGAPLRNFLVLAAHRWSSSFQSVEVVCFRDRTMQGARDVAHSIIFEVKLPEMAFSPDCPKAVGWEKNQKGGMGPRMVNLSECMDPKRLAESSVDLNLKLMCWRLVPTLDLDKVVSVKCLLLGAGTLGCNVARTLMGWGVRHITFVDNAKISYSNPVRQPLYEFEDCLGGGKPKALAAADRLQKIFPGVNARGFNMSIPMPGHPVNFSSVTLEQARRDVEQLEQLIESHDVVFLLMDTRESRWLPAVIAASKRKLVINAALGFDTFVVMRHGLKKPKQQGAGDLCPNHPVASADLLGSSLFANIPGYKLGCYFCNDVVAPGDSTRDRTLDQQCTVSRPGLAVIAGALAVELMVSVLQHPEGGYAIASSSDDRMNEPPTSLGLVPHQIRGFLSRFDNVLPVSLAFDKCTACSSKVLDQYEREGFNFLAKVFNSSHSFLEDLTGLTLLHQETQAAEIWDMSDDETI
Experiment: pull-down

B1: GST-ATG3 (enzyme)
chain: not shown
B1: binds.
